Test system: MS2 coat protein
Assay: apparent KD of MS2 coat protein; higher = weaker reporter binding
Settings: Eterna round: R107
Procedure: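 RNA-MaP round R107: designed RNA switches with theophylline, tryptophan, arginine or FMN aptamers are transcribed on-chip within common flanks. They are titrated with SNAP-549-labelled MS2 coat protein in RNA-MaP buffer (100 mM Tris pH 7.5, 80 mM KCl, 4 mM MgCl2), without ligand or with the indicated ligand. Median apparent KD per design.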

[1] = input ligand: theophylline 20 uM
[2] = input ligand: tryptophan 2.4 mM
[3] = input ligand: theophylline 2 mM

## GAACAUGAGGAUCACCCAUGUAAAACAGAUACCAGUGAUAUAAUACACCCUUGGCAGCUGUAGCUGAAUAAUAAUUCCCUCAAGC [#19 SameState-TheophyllineA]
Input ligand: arginine 13.2 mM
  apparent KD of MS2 coat protein: 17 nM
[1]
  apparent KD of MS2 coat protein: 21.8 nM
[2]
  apparent KD of MS2 coat protein: 16.9 nM

## AGCUUGUAGUCGGCCGCCACUAAUAGGGAUCCUAUCGAGGCGGGUAACAUGAGGAUCACCCAUGUUAGGACCGGGACAGCGAGGA [Cetian]
Input ligand: arginine 13.2 mM
  apparent KD of MS2 coat protein: 10 nM
Input ligand: none
  apparent KD of MS2 coat protein: 16.6 nM
[1]
  apparent KD of MS2 coat protein: 15.4 nM
[3]
  apparent KD of MS2 coat protein: 11.6 nM
[2]
  apparent KD of MS2 coat protein: 10.8 nM

## UCGUCCUCCGCAAGGAGGAGGAGUUGCGAUACCAGCACGGUAACGUGCCCUUGGCAGCGCACAUGAGGAUCACCCAUGUGGUGUU [#1 Exclusion - Theophylline A Attempt #13 (HarryS)]
Input ligand: arginine 13.2 mM
  apparent KD of MS2 coat protein: 59.3 nM
[1]
  apparent KD of MS2 coat protein: 425 nM
[2]
  apparent KD of MS2 coat protein: 188 nM

## ACAUGAGGAUCACCCAUGUUCCUCAUUGAUACCAGUGAAUUUAGACGCCCUUGGCAGCGAGUUUUUUAAGAAGAAGUUUUUUUUU [6.E]
Input ligand: arginine 13.2 mM
  apparent KD of MS2 coat protein: 551 nM
[1]
  apparent KD of MS2 coat protein: 793 nM
[2]
  apparent KD of MS2 coat protein: 992 nM

## UUCUACGGCGAUCUGGGUUUACCAGAUCGACGAGGACCGGUACGGCCGCCACUCGUGUUUCUUUAACAUGAGGAUCACCCAUGUA [#11 Tryptophan A Same State]
Input ligand: arginine 13.2 mM
  apparent KD of MS2 coat protein: 53 nM
[1]
  apparent KD of MS2 coat protein: 78.7 nM
[3]
  apparent KD of MS2 coat protein: 66.1 nM

## AUAUGAUCAUAGGAUACCAGAAAUGGUAUUCCUUUAUUUCUUACAUGAGGAUCACCCAUGUUCCCUUGGCAGCUUAUGAUCAUAU [ETHB #4]
Input ligand: arginine 13.2 mM
  apparent KD of MS2 coat protein: 79.3 nM
[1]
  apparent KD of MS2 coat protein: 169 nM
[2]
  apparent KD of MS2 coat protein: 107 nM

## UACCGAUGAAGAAGGAGCGUGCGUGGUUCACAUGAGGAUCACCCAUGUGCUUUAUACUAGGCACAGGUAGGUCGCUUCAUCGGUA [SSAB NP+V+V2 #22]
Input ligand: arginine 13.2 mM
  apparent KD of MS2 coat protein: 24.3 nM
Input ligand: none
  apparent KD of MS2 coat protein: 19.4 nM
[1]
  apparent KD of MS2 coat protein: 30.7 nM
[3]
  apparent KD of MS2 coat protein: 27.8 nM
[2]
  apparent KD of MS2 coat protein: 23.3 nM

## UGGUCACUAGGAGAUACCAGCCGACAUGAGGAUCACCCAUGUAACCGGCGUCCUCCCUUAGGCCCUUGGCAGCUCGUAGUUGCUC [Vebice]
Input ligand: arginine 13.2 mM
  apparent KD of MS2 coat protein: 11.9 nM
[1]
  apparent KD of MS2 coat protein: 22.5 nM
[2]
  apparent KD of MS2 coat protein: 12.6 nM

## UAAAACAUGAGGAUCACCCAUGUAUUGAGUCGAGGACCGGUACGGCCGCCACUCGGCAAUAAUAACGACGCAUAGCAUGUAGGAA [theeternabot_sameState_MS2_Trp_A_41]
Input ligand: arginine 13.2 mM
  apparent KD of MS2 coat protein: 12.8 nM
[1]
  apparent KD of MS2 coat protein: 19.5 nM
[3]
  apparent KD of MS2 coat protein: 14.9 nM

## ACAUGAGGAUCACCCAUGUGAAGGCACGAUACCAGCUGAUCCCGUGGCCCUUGGCAGCGUCACGUUUGGUCCCGCGGAUGAGACG [crcmullin]
Input ligand: arginine 13.2 mM
  apparent KD of MS2 coat protein: 20.8 nM
Input ligand: none
  apparent KD of MS2 coat protein: 14.2 nM
[1]
  apparent KD of MS2 coat protein: 21.5 nM
[3]
  apparent KD of MS2 coat protein: 17 nM
[2]
  apparent KD of MS2 coat protein: 13.8 nM

## AUCAGUAGAACUGAUACCAGUCAAAGGCUUUGACCUCAUAACAUGAGGAUCACCCAUGUUGACCCUUGGCAGCAGUAGGCAAGGG [Theo B Ex t4]
Input ligand: arginine 13.2 mM
  apparent KD of MS2 coat protein: 22.5 nM
[1]
  apparent KD of MS2 coat protein: 28.9 nM
[2]
  apparent KD of MS2 coat protein: 25.4 nM

## ACAUGAGGAUCACCCAUGUUCCUCUUUGAUACCAGUGAGUUGUUUCGCCCUUGGCAGCGAGUUUUUUUUUUUUUGUUUUGUUUGG [6.R]
Input ligand: arginine 13.2 mM
  apparent KD of MS2 coat protein: 173 nM
[1]
  apparent KD of MS2 coat protein: 351 nM
[2]
  apparent KD of MS2 coat protein: 264 nM

## UAGAUAGAGGGAAGGAGCGCGAUAACAUAACAUGAGGAUCACCCAUGUAAGAAAUUAAUAAUGCAGGUAGGUCGCCCAAGAUGAU [Same State Arginine B gf1]
Input ligand: arginine 13.2 mM
  apparent KD of MS2 coat protein: 8.76 nM
Input ligand: none
  apparent KD of MS2 coat protein: 14.5 nM
[1]
  apparent KD of MS2 coat protein: 15.1 nM
[3]
  apparent KD of MS2 coat protein: 19 nM
[2]
  apparent KD of MS2 coat protein: 17.1 nM

## UCGUGUAUAUCGGAUACCAGUGAAAUCGAUACAUGAGGAUCACCCAUGUGAGUUGAUGUACACCCUUGGCAGCUGUAUAUAUCUA [snbullin]
Input ligand: arginine 13.2 mM
  apparent KD of MS2 coat protein: 15 nM
[1]
  apparent KD of MS2 coat protein: 18.1 nM
[2]
  apparent KD of MS2 coat protein: 15.3 nM

## UGCAUUAUACAUGGAUCACCCAUGUAGACACGAGGACCGGUACGGCCGCCACUCGGAAGAGGAAACAUGAGGAUCACCCAUGUGA [Try A SS t2]
Input ligand: arginine 13.2 mM
  apparent KD of MS2 coat protein: 42.7 nM
[1]
  apparent KD of MS2 coat protein: 89.7 nM
[3]
  apparent KD of MS2 coat protein: 105 nM

## CGGACAUGAGGAUCACCCAUGUACACUGAAGGAGCGUCGAGAACGACAGGUAGGUCGCAGGCUAAGGAAGGUGAUGCUCAAGAAG [Exclusion Arginine A GF5]
Input ligand: arginine 13.2 mM
  apparent KD of MS2 coat protein: 37.8 nM
Input ligand: none
  apparent KD of MS2 coat protein: 36.5 nM
[1]
  apparent KD of MS2 coat protein: 47.3 nM
[3]
  apparent KD of MS2 coat protein: 41.1 nM
[2]
  apparent KD of MS2 coat protein: 23.6 nM

## UCGUAGGUAGGAAGGAGCGCAUACUUCACAUGAGGAUCACCCAUGUCGAGACGUGAGUCAGUGCAGGUAGGUCGCCUAGUUAUGA [Same State - Arginine B (Freestyle 24)]
Input ligand: arginine 13.2 mM
  apparent KD of MS2 coat protein: 19.6 nM
Input ligand: none
  apparent KD of MS2 coat protein: 41.1 nM
[1]
  apparent KD of MS2 coat protein: 36.2 nM
[3]
  apparent KD of MS2 coat protein: 40.2 nM
[2]
  apparent KD of MS2 coat protein: 29.2 nM

## AGCCAUGGAAACAUGGCGGCGGCAUGAGCGCGAGGACCGGUACGGCCGCCACUCGGGCGACAUGAGGAUCACCCAUGUUCCUCAU [ETA NP+V+V2 #22 Same Structure]
Input ligand: arginine 13.2 mM
  apparent KD of MS2 coat protein: 145 nM
Input ligand: none
  apparent KD of MS2 coat protein: 289 nM
[1]
  apparent KD of MS2 coat protein: 312 nM
[3]
  apparent KD of MS2 coat protein: 451 nM
[2]
  apparent KD of MS2 coat protein: 422 nM

## GACAUGAGGAUCACCCAUGUACCGCGAGAAGGAGCGCGGAUAAACGCAGGUAGGUCGCUCGUGGGCUUACAUUCAAGUGUAAGCU [Usarat]
Input ligand: arginine 13.2 mM
  apparent KD of MS2 coat protein: 49 nM
Input ligand: none
  apparent KD of MS2 coat protein: 106 nM
[1]
  apparent KD of MS2 coat protein: 143 nM
[3]
  apparent KD of MS2 coat protein: 118 nM
[2]
  apparent KD of MS2 coat protein: 31.3 nM

## GCACCAGGUACGGAUACCAGCUAUAGGUACAUGUCAGGACAUGAGGAUCACCCAUGUGGUAGCCCUUGGCAGCUGUACCUGGUGC [EThB NP+V+V2 #2]
Input ligand: arginine 13.2 mM
  apparent KD of MS2 coat protein: 18.5 nM
[1]
  apparent KD of MS2 coat protein: 26.3 nM
[2]
  apparent KD of MS2 coat protein: 19.1 nM

## ACACAUGAUAGAAGGAGCGCAAUGAACACACAUGAGGAUCACCCAUGUUUUUUUUGUGUUUUGCAGGUAGGUCGCUAACAUGAGG [Same State Arginine B 4]
Input ligand: arginine 13.2 mM
  apparent KD of MS2 coat protein: 11 nM
Input ligand: none
  apparent KD of MS2 coat protein: 8.66 nM
[1]
  apparent KD of MS2 coat protein: 23.6 nM
[3]
  apparent KD of MS2 coat protein: 11 nM
[2]
  apparent KD of MS2 coat protein: 8.32 nM

## GCGAUGGAGCGAAGGAGCGGCUAAAUGUAUCACAUGAGGAUCACCCAUGUUCCAGGAUGUGGCCAGGUAGGUCGCGCUCCAUCGC [SSAB NP+V+V2 #16]
Input ligand: arginine 13.2 mM
  apparent KD of MS2 coat protein: 233 nM
Input ligand: none
  apparent KD of MS2 coat protein: 229 nM
[1]
  apparent KD of MS2 coat protein: 212 nM
[3]
  apparent KD of MS2 coat protein: 322 nM
[2]
  apparent KD of MS2 coat protein: 288 nM

## UUCUACAUGAGGAUCACCCAUGUAAACGAUACCAGACGAGUAUUAGUCCCUUGGCAGCGUAGAGUGUCGUUUAUAGUAGGAUACC [TheoA-ms2@5]
Input ligand: arginine 13.2 mM
  apparent KD of MS2 coat protein: 23.4 nM
[1]
  apparent KD of MS2 coat protein: 26.1 nM
[2]
  apparent KD of MS2 coat protein: 21 nM

## UAACAUGAGGAUCACCCAUGUAUAGUCGAUACCAGCUCUGUCUAGAGCCCUUGGCAGCGACACUGGUAUCCAUGGGUGUGGAUAC [(Ms2)-(Theo)-(T)'-(M)'-(M)'']
Input ligand: arginine 13.2 mM
  apparent KD of MS2 coat protein: 20.1 nM
[1]
  apparent KD of MS2 coat protein: 98.4 nM
[2]
  apparent KD of MS2 coat protein: 103 nM

## CACGCGGUGUCGGCCGCCACUGACGCCCGUGGGUCUCCUGACAUGAGGAUCACCCAUGUACAGCGCAGGACCGGGACACCAACAA [Are]
Input ligand: arginine 13.2 mM
  apparent KD of MS2 coat protein: 22 nM
Input ligand: none
  apparent KD of MS2 coat protein: 49.4 nM
[1]
  apparent KD of MS2 coat protein: 59 nM
[3]
  apparent KD of MS2 coat protein: 64.2 nM
[2]
  apparent KD of MS2 coat protein: 29.3 nM

## ACUGGAGGUGGAAGGAGCGGGAGACAUGAGCAUCACAUGAGGAUCACCCAUGUAGGAUCAUCCCAGGUAGGUCGCCAUGUCGAAA [rtfemullin]
Input ligand: arginine 13.2 mM
  apparent KD of MS2 coat protein: 120 nM
Input ligand: none
  apparent KD of MS2 coat protein: 276 nM
[1]
  apparent KD of MS2 coat protein: 292 nM
[3]
  apparent KD of MS2 coat protein: 431 nM
[2]
  apparent KD of MS2 coat protein: 189 nM

## UUCAGCUAGUCGGCCGCCACUACAUGAGCAUCAGCCAUGUUCCUAAAACACUGCUUCGGCAGUGGUAGGACCGGGACUAGCUGAG
Input ligand: arginine 13.2 mM
  apparent KD of MS2 coat protein: 10.4 nM
Input ligand: none
  apparent KD of MS2 coat protein: 11 nM
[1]
  apparent KD of MS2 coat protein: 12 nM
[3]
  apparent KD of MS2 coat protein: 12.6 nM
[2]
  apparent KD of MS2 coat protein: 25.9 nM

## AGCCAUGGAAACAUGGCGGCGGCUUGGGCGCGAGGACCGGUACGGCCGCCACUCGGGCAACAUGAGGAUCACCCAUGUUCCUCAU [ETA NP+V+V2 #18]
Input ligand: arginine 13.2 mM
  apparent KD of MS2 coat protein: 84.6 nM
Input ligand: none
  apparent KD of MS2 coat protein: 128 nM
[1]
  apparent KD of MS2 coat protein: 245 nM
[3]
  apparent KD of MS2 coat protein: 317 nM
[2]
  apparent KD of MS2 coat protein: 161 nM

## ACAUGAAGAACAGCGGUGGGCGCGCUCGAUACCAGUAUUUUAAACUACCCUUGGCAGCGACAUGAGGAUCACCCAUGUGAGAUGA [XTheo A #6]
Input ligand: arginine 13.2 mM
  apparent KD of MS2 coat protein: 16.9 nM
[1]
  apparent KD of MS2 coat protein: 21.8 nM
[2]
  apparent KD of MS2 coat protein: 19.5 nM

## AGCAUACAUUCUGAUACCAGAGACAUGAGGAUCACCCAUGUCCGAUCGUCCUGCCUCAGACUCCCUUGGCAGCAGGAUGUGUGCU [Exclusion Theophylline B GF6]
Input ligand: arginine 13.2 mM
  apparent KD of MS2 coat protein: 13.1 nM
[1]
  apparent KD of MS2 coat protein: 17.6 nM
[2]
  apparent KD of MS2 coat protein: 13.8 nM

From the supplement of paper PMC9170038
